This is an account of results in patent publication US20200270347A1 (Hoffmann-La Roche, published 2020).

Residue numbers refer to the chain shown, from its start. Where only a bound is given, the exact number is not on record here.

The target of test [1] is T1, heterodimer of human CD3 delta and CD3 epsilon ectodomains fused to a human Fc domain with knob-into-hole … (human).
T1 construct: Each entry is the whole fusion chain (ectodomain, stalk, Fc, Avi-tag); also called recombinant CD3; recombinant human CD3
Kind of test: SPR, TCB captured with anti-PGLALA antibody, CD3 antigen as analyte, 1:1 Langmuir; CD3opt; human CD3. For orientation: SPR reads the build-up and loss of mass on a sensor chip optically.

Test [2] has as its target T2, heterodimer of cynomolgus CD3 delta and CD3 epsilon ectodomains fused to a human Fc domain with … (cynomolgus).
T2 construct: Each entry is the whole fusion chain; also called Cynomolgus CD3 epsilon stalk-Fc(knob)-Avi / Cynomolgus CD3 delta stalk-Fc(hole)-Avi
Kind of test: SPR, TCB captured with anti-PGLALA antibody, CD3 antigen as analyte, 1:1 Langmuir; CD3opt; cynomolgus CD3.

Test [3] deals with T1, heterodimer of human CD3 delta and CD3 …. Kind of test: SPR, relative active concentration after stress.
Experimental: In one aspect, the binding activity to CD3 is determined by SPR as follows: SPR is performed on a Biacore T200 instrument (GE Healthcare). […] As running and dilution buffer, HBS-P+ (10 mM HEPES, 150 mM NaCl pH 7.4, 0.05% Surfactant P20) is used. CD3 antibodies with a concentration of 2 μg/ml (in 20 mM His, 140 mM NaCl, pH 6.0) are injected for about 60 s at a flow rate of 5 μl/min. […] CD3 antigen is injected at a concentration of 10 μg/ml for 120 s and dissociation is monitored at a flow rate of 5 μl/min for about 120 s. The chip surface is regenerated by two consecutive injections of 10 mM glycine pH 2.1 for about 60 s each. Bulk refractive index differences are corrected by subtracting blank injections and by subtracting the response obtained from the blank control flow cell. For evaluation, the binding response is taken 5 seconds after injection end. To normalize the binding signal, the CD3 binding is divided by the anti-Fab response (the signal (RU) obtained upon capture of the CD3 antibody on the immobilized anti-Fab antibody).
SPR was performed on a Biacore T200 instrument (GE Healthcare). […] As running and dilution buffer, HBS-P+(10 mM HEPES, 150 mM NaCl pH 7.4, 0.05% Surfactant P20) was used. CD3 antibodies with a concentration of 2 μg/ml were injected for 60 s at a flow rate of 5 μl/min.
Test [4] has as its target T3, EGFRvIII-ECD avi his (human).
T3 construct: Extracellular domain of human EGFRvIII fused to an Avi-tag and a His-tag at the C-terminus; the entry is the whole construct; also called recombinant EGFRvIII; EGFRvIII antigen
Kind of test: SPR, TCB captured with anti-Fc antibody, EGFRvIII-ECD avi his as analyte, 1:1 fit; CD3opt.

Test [5] concerns the target T4, EGFRvIII expressed on the cell surface (CHO-EGFRvIII, DK-MG, U87MG-EGFRvIII cells) (human, UniProt P00533 298-1210).
T4 construct: The cell line of each result is named under assay; Species is stated for the U87 transfectant (human EGFRvIII protein) and the entry; also called EGFRvIII positive cells
Briefly: flow cytometry on U87MG-EGFRvIII cells, fluorescently labelled anti-human Fc secondary antibody.

For test [6], the target named is T1, heterodimer of human CD3 delta and CD3 …. Kind of test: SPR, TCB captured with anti-PGLALA antibody, CD3 antigen as analyte, 1:1 Langmuir; CD3orig; human CD3.
Test [7] has as its target T3, EGFRvIII-ECD avi his. Kind of test: SPR, TCB captured with anti-Fc antibody, EGFRvIII-ECD avi his as analyte, 1:1 fit; CD3orig.

B1: EGFRvIII TCB CD3opt (EGFRvIII binder P063.056) (bispecific antibody, human IgG1, kappa, L234A L235A)
heavy 1: not shown
heavy 2: EVQLVQSGAEVKKPGESLKISCKGSGYSFDSYWIAWVRQMPGKGLEWMGVIHPYDSDTRYSPSFQGQVTISADKSISTAYLQWSSLKASDTAMYYCARVSRSSYAFDYWGQGTLVTVSSASTKGPSVFPLAPSSKSTSGGTAALGCLVEDYFPEPVTVSWNSGALTSGVHTFPAVLQSSGLYSLSSVVTVPSSSLGTQTYICNVNHKPSNTKVDEKVEPKSCDKTHTCPPCPAPEAAGGPSVFLFPPKPKDTLMISRTPEVTCVVVDVSHEDPEVKFNWYVDGVEVHNAKTKPREEQYNSTYRVVSVLTVLHQDWLNGKEYKCKVSNKALGAPIEKTISKAKGQPREPQVCTLPPSRDELTKNQVSLSCAVKGFYPSDIAVEWESNGQPENNYKTTPPVLDSDGSFFLVSKLTVDKSRWQQGNVFSCSVMHEALHNHYTQKSLSLSP
light 1: not shown
light 2: EVQLLESGGGLVQPGGSLRLSCAASGFQFSSYAMNWVRQAPGKGLEWVSRIRSKYNNYATYYADSVKGRFTISRDDSKNTLYLQMNSLRAEDTAVYYCVRHTTFPSSYVSYYGYWGQGTLVTVSSASVAAPSVFIFPPSDEQLKSGTASVVCLLNNFYPREAKVQWKVDNALQSGNSQESVTEQDSKDSTYSLSSTLTLSKADYEKHKVYACEVTHQGLSSPVTKSFNRGEC
notes: 2+1 IgG CrossFab, inverted, with charge modifications; also called EGFRvIII TCB P063.056 with CD3opt; 2+1 format
On to B1, for which the Kd (as a rule, the concentration at which binding is half-saturated) was 30 nM in test [1], 20 nM in test [2] and 6 nM in test [4]. Further, the “binding activity to CD3 after 2 weeks at pH 7.4, 37° C., relative to 2 weeks at pH 6, -80° C.” value in test [3] was greater than 90%. In addition, in test [5], the binding result was “binds”.

B2: EGFRvIII TCB CD3orig (EGFRvIII binder P063.056) (bispecific antibody, human IgG1, kappa, L234A L235A)
heavy 1: not shown
heavy 2: B1 heavy 2
light 1: not shown
light 2: B1 light 2 with Q28T, S31T, T102G, T103N, P105G, S106N, Y111W, Y112F, G113A
notes: 2+1 IgG CrossFab, inverted, with charge modifications; also called EGFRvIII TCB P063.056 with CD3orig
For the molecule B2, the equilibrium dissociation constant (Kd) in test [6] was determined as 40 nM; in test [7] it was 6 nM. Besides, in test [5], the EC50 (read off the curve) (commonly the concentration needed to bring the measured effect to its halfway point) is roughly 9 nM.
